Source: patent publication US20250002563A1 (UNIVERSITY OF PITTSBURGH OF THE COMMONWEALTH SYSTEM OF …, published 2025)
Positions count from the first letter of the chain named.

B1: 4P-19 (VHH)
VHH: HVQLVESGGGLVQAGGSLRLSCAASGRTVSSEFMGWFRQAPGKEREFVAAITWDGGSTYYTDSVKGRFTISRDNAKNTVYLQMNSLKPEDTAVYYCAADRSIFQSYYSAKYPNNYEYWGQGTQVTVSS
B2: 5p-176 (VHH)
VHH: EVQLVESGGRLVQAGGSLRLSCAASGRTFSTYTMAWFRQAPGKEREFVAGIARNGDTAYYSDSVKGRFTISRDNAKNEVSLQMNSLKPEDTAVYTCAARSVVQLEVVLNNPIHFEYWGQGTQVTVSS
B3: 5p-179 (VHH)
VHH: HVQLVESGGGLVQAGGSLRLSCAASGTISTLNAMGWYRQAPGKQRELLASISNLGTTYHADSVAGRFTISRGSAKNTVNLQMNSLKPDDTAVYYCNTRVLEGGTQIRDYWGQGTQVTVSS
notes: class IV psNb
B4: 5p-156 (VHH)
VHH: EVQLVESGGGLVQAGDSLRLSCVASGRTFTTSIMGWFRQAPGKEREFVAAIARNGVSTFYADSVKGRFTASRDNAKNTLYLQMNSLKPEDTGVYYCAAKPRGVGLTDRISDYDYWGQGTQVTVSS
B5: 5p-162 (VHH)
VHH: DVQLVESGGGFVQAGGSLRLSCADSGLTRSVWPMGWFRQAPGKEREFVAGIAWSGERQSYADFVKGRFTVSRDNARNTVYLQMNSLKPEDTAVYYCAAPTSGVFGRTYAPTATSSYDSWGQGTQVTVSS
B6: 4P-17 (VHH)
VHH: HVQLVESGGGLVQAGASLRLSCAASGRTASNYVMGWFRQAAGKEREFVAHISWSGDETNYADSVRGRFIISRDNAENTVYLQMNSLKPEDTAVYYCAADRGYSLMYYSSREYTYWGQGTQVTVSS
B7: 5p-174 (VHH)
VHH: HVQLVESGGGLVQTGASLRLSCKASGRTFSTYTISWFRQAPGKEREFVGGVATSGGTTYYGDSVQGRFTISRDNAKNEVYLQMNSVKPEDTAVYICAARSVIQDTVVISNPIHFEYWGQGTQVTVSS
B8: 5p-164 (VHH)
VHH: DVQLVESGGGLVKTGDSLRLSCAVSGGTFGSYGMAWFRQAPGKEREIVASIGRTGRTTDYADSVKGRFSIARDNAKNTVYLQMNNLKPEDTAVYYCAARIFSLNYALIGRDTNINYWGQGTQVTVSS
B9: 5p-6 (VHH)
VHH: DVQLVESGGGLVQAGGSLRLSCAASGSTFSGNAIGWYRQAPGKQRELVATINAPGSTDYAESVKGRFTISRDNAKNTVFLQMNSLKPEDTAVYYCNVCKFLLSVLCHPGQDYWGQGTQVTVSS
B10: 4P-3 (VHH)
VHH: DVQLVESGGGLVQAGDSLRLSCAASGRTFGNYVLDWFRQAPGKEREFVASITQTGFGTYYADAVKGRFTISRDNAKNTMYLQMNSLKPEDTAVYYCAADFTAQNGGIRNPTYWGQGTQVTVSS
B11: 4P-4 (VHH)
VHH: B10 VHH with G105R, N109I, T111R
B12: 4P-5 (VHH)
VHH: B10 VHH with D16G, A102V
B13: 5p-171 (VHH)
VHH: QVQLVESGGGLVQTGGSLRLSCAASGRTFSTYTMGWFRQAPGKEREFVAAITPTGYGTKSADSVKGRFIISRDNPKNTVYLQMNNLKPEDTAVYYCAARSGTITNQDQYDFHYWGQGTQVTVSS
B14: 4P-84 (VHH)
VHH: HVQLVESGGGLVQAGGSLRLSCAVSGRTVSTYGMGWFRQAPGKERDFVATITRSGGTTLYADSVKGRFTISRDNAKNTVYLQMNSLKIEDTAVYYCAVRRDSSFGYSRDSFEYDDWGQGTQVTVSS
B15: 4P-86 (VHH)
VHH: B14 VHH with H1D, G35A, D46E, G55E, L59F, F104W
B16: 5p-169 (VHH)
VHH: DVQLVESGGGLVQAGGSLRLSCLVSGLTFSTYGMGWFRQAPGKEREFVAQITRSGSPTLYADSVKGRFTISRDNAKNTMYLQMNSLKIEDTAVYYCAVRRDSSWGYSRDSFEYDYWGQGTQVTVSS
B17: 5p-180 (VHH)
VHH: QVQLVESGGGLVQAGGSLRLSCVASGTISTLNAMGWYRQAPGKQRELLTSISNLGTTYSADSVKGRFTISRGNAKNTVYLQMDSLKPDDTAVYYCNTRVLEGTEYRDYWGQGTQVTVSS
B18: 4P-10 (VHH)
VHH: HVQLVESGGGLVQAGDSLRLSCTASGRTFSAYGMGWFRQAPGKEREFVAGIARSGSEYYGDSVKGRFTISRDNAKNTVYLQMASLKAEDTGVYYCAADPTILYHAISQRTQNYRYWGPGTQVTVSS
B19: 4P-9 (VHH)
VHH: B18 VHH with H1Q, Y115H
B20: 5p-24 (VHH)
VHH: DVQLVESGGGLVQAGDSLRLSCTASGLTFSAYGMGWFRQAPGKEREFVAGIARSGSEFYGDSVKGRFTISRDNAKNTVYLQVNSLRPEDTALYYCAADRTILYHAISQRTQNYQYWGPGTQVTVSS
B21: 5p-16 (VHH)
VHH: DVQLVESGGGLVQAGGSLRLSCLASGRTFSNYAMAWFRQSPGKEREFVAVITSGRSTDYADSVKGRFTISRDNAKNTVYLQMNSLKPEDTAVYYCAADQAPLRFSYSLSRDKYDYWGQGTQVTVSS
B22: 5p-17 (VHH)
VHH: B21 VHH with D1Q, L20V, L23A, T28S, N31D, A100T
B23: 4P-12 (VHH)
VHH: B21 VHH with L23A, N31S, A33T, A35G, S40A, T52S, K112E
B24: 5p-168 (VHH)
VHH: DVQLVESGGGLVQAGASLRLSCVVSGVTFSTYGMAWFRQAPEKQRTFVATITREDTTFYADSVKGRFTISRDNAKNTVYLQMNSLKLEDTAVYYCAVRRDSSWGYSRDLFEYDDWGQGTQVTVSS
B25: 5p-10 (VHH)
VHH: QVQLVESGGGLVQAGGSLRLSCAASGRTFSSSAMGWFRQAPGKDREFVAAISPSSTNTGYTDSVKGRFTISRDNTKNTVDLQMNNLKPEDTAIYYCAADANSLRYGYSQNQGRYEYWGQGTQVTVSS

target: RBDSARS-CoV-2 (SARS-CoV-2 S protein residues 319-539, C-terminal His-tag) (SARS-CoV-2, UniProt P0DTC2 319-539); assay: ELISA

Binder | IC50 [nM]
B1 | < 10
B2 | < 10
B3 | < 10
B4 | < 10
B5 | 10 to 100
B6 | < 10
B7 | < 10
B8 | < 10
B9 | < 10
B10 | 10 to 100
B11 | 10 to 100
B12 | 10 to 100
B13 | < 10
B14 | < 10
B15 | < 10
B16 | < 10
B17 | < 10
B18 | < 10
B19 | < 10
B20 | < 10
B21 | < 10
B22 | < 10
B23 | < 10
B24 | < 10
B25 | < 10

target: RBDSARS-CoV (SARS-CoV S protein residues 318-510, C-terminal His-tag) (SARS-CoV, UniProt P59594 318-510); assay: ELISA

Binder | IC50 [nM]
B1 | 100 to 1000
B2 | < 10
B3 | > 8000
B4 | 10 to 100
B5 | 10 to 100
B6 | 1000 to 8000
B7 | < 10
B8 | 10 to 100
B9 | 10 to 100
B10 | 1000 to 8000
B11 | 100 to 1000
B12 | 100 to 1000
B13 | 10 to 100
B14 | < 10
B15 | < 10
B16 | < 10
B17 | > 8000
B18 | 100 to 1000
B19 | 100 to 1000
B20 | < 10
B21 | 10 to 100
B22 | < 10
B23 | 10 to 100
B24 | < 10
B25 | 10 to 100
